Source: the supplement of paper PMC9112550, “Optimization of the antimicrobial peptide Bac7 by deep mutational scanning” (BMC Biology, 2022)

Tested on: Escherichia coli TOP10
Assay: shrunken log2 fold change of peptide-encoding DNA abundance (4.5 h post-induction vs induction); higher = less antimicrobial activity (less host growth inhibition)
Conditions: time post-induction: 4.5 h; library: site-saturation at positions 5, 18, 19, 20
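Note: peptides expressed intracellularly from a pBAD plasmid library in pooled LB shake-flask culture, induced with 0.3% L-arabinose, DNA abundance read by NGS, three biological replicates, DESeq2 with apeglm shrinkage.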

RRIRVRPPRLPRPRPRPCNNPRP
shrunken log2 fold change: 0.0786

RRIRVRPPRLPRPRPRPCPWPRP
shrunken log2 fold change: 0.0617

RRIRVRPPRLPRPRPRPCPYPRP
shrunken log2 fold change: -1.14

RRIRVRPPRLPRPRPRPCSMPRP
shrunken log2 fold change: -0.177

RRIRVRPPRLPRPRPRPCTEPRP
shrunken log2 fold change: -0.167

RRIRVRPPRLPRPRPRPCTLPRP
shrunken log2 fold change: -0.196

RRIRVRPPRLPRPRPRPCVCPRP
shrunken log2 fold change: -0.0618

RRIRVRPPRLPRPRPRPCVGPRP
shrunken log2 fold change: 0.00147

RRIRVRPPRLPRPRPRPCWEPRP
shrunken log2 fold change: -0.0578

RRIRVRPPRLPRPRPRPCWRPRP
shrunken log2 fold change: 0.0437

RRIRVRPPRLPRPRPRPCYEPRP
shrunken log2 fold change: -0.246

RRIRVRPPRLPRPRPRPCYIPRP
shrunken log2 fold change: -0.281

RRIRVRPPRLPRPRPRPDATPRP
shrunken log2 fold change: 0.299

RRIRVRPPRLPRPRPRPDCKPRP
shrunken log2 fold change: -0.104

RRIRVRPPRLPRPRPRPDCTPRP
shrunken log2 fold change: -0.068

RRIRVRPPRLPRPRPRPDCVPRP
shrunken log2 fold change: 0.0012

RRIRVRPPRLPRPRPRPDEHPRP
shrunken log2 fold change: 0.0107

RRIRVRPPRLPRPRPRPDGAPRP
shrunken log2 fold change: 0.413

RRIRVRPPRLPRPRPRPDGMPRP
shrunken log2 fold change: -0.454

RRIRVRPPRLPRPRPRPDHEPRP
shrunken log2 fold change: -0.0524

RRIRVRPPRLPRPRPRPDHRPRP
shrunken log2 fold change: -0.272

RRIRVRPPRLPRPRPRPDHWPRP
shrunken log2 fold change: 0.152

RRIRVRPPRLPRPRPRPDKEPRP
shrunken log2 fold change: 0.000945

RRIRVRPPRLPRPRPRPDKMPRP
shrunken log2 fold change: -0.0822

RRIRVRPPRLPRPRPRPDLRPRP
shrunken log2 fold change: -0.0613

RRIRVRPPRLPRPRPRPDMKPRP
shrunken log2 fold change: 0.0218

RRIRVRPPRLPRPRPRPDMTPRP
shrunken log2 fold change: -0.0435

RRIRVRPPRLPRPRPRPDNPPRP
shrunken log2 fold change: -0.101

RRIRVRPPRLPRPRPRPDNSPRP
shrunken log2 fold change: -0.202

RRIRVRPPRLPRPRPRPDNTPRP
shrunken log2 fold change: -0.426

RRIRVRPPRLPRPRPRPDPWPRP
shrunken log2 fold change: 0.131

RRIRVRPPRLPRPRPRPDQIPRP
shrunken log2 fold change: -0.0895

RRIRVRPPRLPRPRPRPDQQPRP
shrunken log2 fold change: 0.021

RRIRVRPPRLPRPRPRPDQRPRP
shrunken log2 fold change: 0.128

RRIRVRPPRLPRPRPRPDQVPRP
shrunken log2 fold change: -0.202

RRIRVRPPRLPRPRPRPDRIPRP
shrunken log2 fold change: -0.135

RRIRVRPPRLPRPRPRPDRLPRP
shrunken log2 fold change: 0.314

RRIRVRPPRLPRPRPRPDRMPRP
shrunken log2 fold change: -0.268

RRIRVRPPRLPRPRPRPDRVPRP
shrunken log2 fold change: -0.285

RRIRVRPPRLPRPRPRPDSEPRP
shrunken log2 fold change: -0.105

RRIRVRPPRLPRPRPRPDSRPRP
shrunken log2 fold change: 0.0857

RRIRVRPPRLPRPRPRPDSWPRP
shrunken log2 fold change: -0.0688

RRIRVRPPRLPRPRPRPDVKPRP
shrunken log2 fold change: -0.0375

RRIRVRPPRLPRPRPRPDWTPRP
shrunken log2 fold change: 0.00219

RRIRVRPPRLPRPRPRPEAIPRP
shrunken log2 fold change: -0.0125

RRIRVRPPRLPRPRPRPECMPRP
shrunken log2 fold change: 0.283

RRIRVRPPRLPRPRPRPECNPRP
shrunken log2 fold change: -0.195

RRIRVRPPRLPRPRPRPECYPRP
shrunken log2 fold change: -0.035

RRIRVRPPRLPRPRPRPEDKPRP
shrunken log2 fold change: -0.00975

RRIRVRPPRLPRPRPRPEEIPRP
shrunken log2 fold change: -0.0172

RRIRVRPPRLPRPRPRPEEYPRP
shrunken log2 fold change: -0.411

RRIRVRPPRLPRPRPRPEGEPRP
shrunken log2 fold change: 0.171

RRIRVRPPRLPRPRPRPEHAPRP
shrunken log2 fold change: 0.0467

RRIRVRPPRLPRPRPRPEHGPRP
shrunken log2 fold change: -0.219

RRIRVRPPRLPRPRPRPEIKPRP
shrunken log2 fold change: -0.107

RRIRVRPPRLPRPRPRPEITPRP
shrunken log2 fold change: -0.159

RRIRVRPPRLPRPRPRPEKCPRP
shrunken log2 fold change: 0.0903

RRIRVRPPRLPRPRPRPELQPRP
shrunken log2 fold change: -0.0355

RRIRVRPPRLPRPRPRPEMIPRP
shrunken log2 fold change: -0.0397

RRIRVRPPRLPRPRPRPENQPRP
shrunken log2 fold change: -0.008

RRIRVRPPRLPRPRPRPENTPRP
shrunken log2 fold change: -0.0389

RRIRVRPPRLPRPRPRPEPCPRP
shrunken log2 fold change: -0.0507

RRIRVRPPRLPRPRPRPEQEPRP
shrunken log2 fold change: -0.0189

RRIRVRPPRLPRPRPRPEQFPRP
shrunken log2 fold change: 0.0357

RRIRVRPPRLPRPRPRPETLPRP
shrunken log2 fold change: -0.223

RRIRVRPPRLPRPRPRPEWFPRP
shrunken log2 fold change: -0.154

RRIRVRPPRLPRPRPRPEWRPRP
shrunken log2 fold change: 0.212

RRIRVRPPRLPRPRPRPEYDPRP
shrunken log2 fold change: -0.0844

RRIRVRPPRLPRPRPRPEYHPRP
shrunken log2 fold change: -0.287

RRIRVRPPRLPRPRPRPEYMPRP
shrunken log2 fold change: -0.305

RRIRVRPPRLPRPRPRPEYPPRP
shrunken log2 fold change: -0.322

RRIRVRPPRLPRPRPRPFFEPRP
shrunken log2 fold change: 0.142

RRIRVRPPRLPRPRPRPFFMPRP
shrunken log2 fold change: -0.339

RRIRVRPPRLPRPRPRPFICPRP
shrunken log2 fold change: -0.331

RRIRVRPPRLPRPRPRPFILPRP
shrunken log2 fold change: -0.384

RRIRVRPPRLPRPRPRPFIVPRP
shrunken log2 fold change: -0.285

RRIRVRPPRLPRPRPRPFKCPRP
shrunken log2 fold change: -0.0453

RRIRVRPPRLPRPRPRPFKKPRP
shrunken log2 fold change: -0.115

RRIRVRPPRLPRPRPRPFKVPRP
shrunken log2 fold change: -0.243

RRIRVRPPRLPRPRPRPFLAPRP
shrunken log2 fold change: -0.219

RRIRVRPPRLPRPRPRPFQLPRP
shrunken log2 fold change: 0.142

RRIRVRPPRLPRPRPRPFSEPRP
shrunken log2 fold change: -0.237

RRIRVRPPRLPRPRPRPFSHPRP
shrunken log2 fold change: -0.358

RRIRVRPPRLPRPRPRPFSIPRP
shrunken log2 fold change: -0.349

RRIRVRPPRLPRPRPRPFSPPRP
shrunken log2 fold change: -0.363

RRIRVRPPRLPRPRPRPFSWPRP
shrunken log2 fold change: -0.144

RRIRVRPPRLPRPRPRPFTAPRP
shrunken log2 fold change: -0.317

RRIRVRPPRLPRPRPRPFVFPRP
shrunken log2 fold change: -0.0359

RRIRVRPPRLPRPRPRPFVIPRP
shrunken log2 fold change: -0.477

RRIRVRPPRLPRPRPRPGANPRP
shrunken log2 fold change: 0.222

RRIRVRPPRLPRPRPRPGARPRP
shrunken log2 fold change: 0.198

RRIRVRPPRLPRPRPRPGAVPRP
shrunken log2 fold change: 0.481

RRIRVRPPRLPRPRPRPGCAPRP
shrunken log2 fold change: 0.757

RRIRVRPPRLPRPRPRPGDGPRP
shrunken log2 fold change: 0.532

RRIRVRPPRLPRPRPRPGDLPRP
shrunken log2 fold change: -0.211

RRIRVRPPRLPRPRPRPGFNPRP
shrunken log2 fold change: -0.0909

RRIRVRPPRLPRPRPRPGGVPRP
shrunken log2 fold change: 0.224

RRIRVRPPRLPRPRPRPGHYPRP
shrunken log2 fold change: -0.125

RRIRVRPPRLPRPRPRPGIGPRP
shrunken log2 fold change: 0.344

RRIRVRPPRLPRPRPRPGIHPRP
shrunken log2 fold change: -0.118

RRIRVRPPRLPRPRPRPGITPRP
shrunken log2 fold change: -0.238

RRIRVRPPRLPRPRPRPGKAPRP
shrunken log2 fold change: -0.00584

RRIRVRPPRLPRPRPRPGKNPRP
shrunken log2 fold change: -0.22

RRIRVRPPRLPRPRPRPGKTPRP
shrunken log2 fold change: 0.0999

RRIRVRPPRLPRPRPRPGLRPRP
shrunken log2 fold change: 0.663

RRIRVRPPRLPRPRPRPGMCPRP
shrunken log2 fold change: 0.00908

RRIRVRPPRLPRPRPRPGMFPRP
shrunken log2 fold change: -0.132

RRIRVRPPRLPRPRPRPGPMPRP
shrunken log2 fold change: 0.189

RRIRVRPPRLPRPRPRPGPNPRP
shrunken log2 fold change: 0.0445

RRIRVRPPRLPRPRPRPGRWPRP
shrunken log2 fold change: 0.649

RRIRVRPPRLPRPRPRPGSNPRP
shrunken log2 fold change: 0.0377

RRIRVRPPRLPRPRPRPGSYPRP
shrunken log2 fold change: -0.186

RRIRVRPPRLPRPRPRPGVAPRP
shrunken log2 fold change: 0.377

RRIRVRPPRLPRPRPRPGVQPRP
shrunken log2 fold change: -0.0209

RRIRVRPPRLPRPRPRPGWDPRP
shrunken log2 fold change: 0.243

RRIRVRPPRLPRPRPRPGWHPRP
shrunken log2 fold change: 0.132

RRIRVRPPRLPRPRPRPGWRPRP
shrunken log2 fold change: 0.49

RRIRVRPPRLPRPRPRPGYLPRP
shrunken log2 fold change: -0.14

RRIRVRPPRLPRPRPRPGYWPRP
shrunken log2 fold change: 0.0156

RRIRVRPPRLPRPRPRPHAGPRP
shrunken log2 fold change: 0.108

RRIRVRPPRLPRPRPRPHAMPRP
shrunken log2 fold change: -0.18

RRIRVRPPRLPRPRPRPHATPRP
shrunken log2 fold change: 0.204

RRIRVRPPRLPRPRPRPHCEPRP
shrunken log2 fold change: -0.0141

RRIRVRPPRLPRPRPRPHDKPRP
shrunken log2 fold change: -0.123

RRIRVRPPRLPRPRPRPHEQPRP
shrunken log2 fold change: -0.163

RRIRVRPPRLPRPRPRPHHAPRP
shrunken log2 fold change: -0.0431

RRIRVRPPRLPRPRPRPHKRPRP
shrunken log2 fold change: 0.06

RRIRVRPPRLPRPRPRPHLAPRP
shrunken log2 fold change: 0.101

RRIRVRPPRLPRPRPRPHLLPRP
shrunken log2 fold change: -0.272

RRIRVRPPRLPRPRPRPHLWPRP
shrunken log2 fold change: -0.0616

RRIRVRPPRLPRPRPRPHMQPRP
shrunken log2 fold change: 0.0906

RRIRVRPPRLPRPRPRPHNAPRP
shrunken log2 fold change: -0.164

RRIRVRPPRLPRPRPRPHPCPRP
shrunken log2 fold change: 0.106

RRIRVRPPRLPRPRPRPHPWPRP
shrunken log2 fold change: 0.0927

RRIRVRPPRLPRPRPRPHQCPRP
shrunken log2 fold change: 0.00485

RRIRVRPPRLPRPRPRPHRCPRP
shrunken log2 fold change: 0.0572

RRIRVRPPRLPRPRPRPHSRPRP
shrunken log2 fold change: 0.0978

RRIRVRPPRLPRPRPRPHTEPRP
shrunken log2 fold change: -0.042

RRIRVRPPRLPRPRPRPHTNPRP
shrunken log2 fold change: -0.471

RRIRVRPPRLPRPRPRPHWTPRP
shrunken log2 fold change: -0.045

RRIRVRPPRLPRPRPRPHWWPRP
shrunken log2 fold change: 0.355

RRIRVRPPRLPRPRPRPHYTPRP
shrunken log2 fold change: -0.169

RRIRVRPPRLPRPRPRPICAPRP
shrunken log2 fold change: -0.167

RRIRVRPPRLPRPRPRPICGPRP
shrunken log2 fold change: 0.0607

RRIRVRPPRLPRPRPRPICNPRP
shrunken log2 fold change: -0.183

RRIRVRPPRLPRPRPRPIEEPRP
shrunken log2 fold change: -0.181

RRIRVRPPRLPRPRPRPIFCPRP
shrunken log2 fold change: 0.078

RRIRVRPPRLPRPRPRPIFMPRP
shrunken log2 fold change: -0.363

RRIRVRPPRLPRPRPRPIFPPRP
shrunken log2 fold change: 0.199

RRIRVRPPRLPRPRPRPIIIPRP
shrunken log2 fold change: -0.235
